In assay [1] the target is T1, CD47 on the surface of CD47+ cells (human, UniProt Q08722 19-323).
T1 construct: whole, on cells; also called CD47+ cell lines; CD47 on Raji cells, HCT-15 cells, human red blood cells (RBCs), human platelets
Kind of assay: flow cytometry, competition with SIRPA-mIgG2a on CD47+ tumor cells; IC50 as grade, legend the 8th table, row 26. On the technique in general: A flow cytometer gives signals particle by particle.
Procedure: Tumor cells were harvested, centrifuged, and then resuspended in FACS buffer (PBS plus 2% FBS) at a concentration of 2×10⁶ cells/mL. 100 μL of the cell suspension was dispensed into each well of a 96-well plate. The plate was centrifuged for 5 min and 300×g, and the supernatants were discarded. […] After washing twice with FACS buffer, the plates were resuspended with 300 μL FACS buffer and analyzed by flow cytometry.

Assay [2] deals with T1, CD47 on the surface of CD47+ cells. Put plainly: flow cytometry on CD47+ cell lines; EC50 as grade, legend the 7th table, row 26.
Procedure: Antibody binding to CD47+ cell lines was quantified by flow cytometry. Harvested cells were centrifuged at 2000 rpm for 5 min, resuspended in 10-15 mL ice-cold culture medium, and then counted. Cells were resuspended in blocking buffer (PBS plus 2% FBS) at a concentration of 3×10⁶ cells/mL. 100 μL of the cell suspension was dispensed into each well of a 96-well plate. Purified antibodies were diluted to the desired concentrations with blocking buffer and 100 μL of diluted antibodies were added to the well and incubated for 1 hour at 4° C. The cells were then washed 3 times with PBS plus 2% FBS. […] The cells were then washed 3 times with 200 μL PBS by centrifuging at 2000 rpm for 5 min. After the last wash, the cells were resuspended in 300 μL cold PBS and analyzed on a FACSVerse™ (BD Biosciences) flow cytometer.
Assay [3] deals with T2, extracellular domain (ECD) of human CD47 (19aa-139aa) with C-terminal 6xHis tag (human, UniProt Q08722 19-139).
T2 construct: also called recombinant CD47; recombinant human CD47
Put plainly: ELISA, coated recombinant CD47; EC50 as grade, legend the 6th table, row 26. In general terms: An ELISA detects its analyte on a solid surface through an enzyme-linked reagent.
Procedure: A 96-well plate was coated overnight at 4° C. with 1 μg/ml recombinant CD47. After washing 3 times, the plate was blocked with 300 μL 1% BSA in PBST at 37° C. for 1 hour. Serially diluted antibodies were added and incubated at 37° C. for 1 hour. The plate was then washed 4 times with PBST and incubated with 1:5000 diluted 2nd antibody (Sigma, Cat #A0293) at 37° C. for 1 hour.

Assay [4] has as its target T2, extracellular domain (ECD) of human …. Put plainly: ELISA, recombinant human CD47; EC50 as grade, legend the 11th table, row 38.

30 molecules from patent US20240174750A1 (VIRTUOSO BINCO, published 2024) can be followed below.

Broadly, the IC50 is the concentration that gives 50% inhibition. Lower therefore signals greater potency. In general, EC50 refers to the midpoint of the concentration-response curve.

Positions count from the first letter of the chain named.

B1: M.69H1H9 (antibody, human IgG1, kappa, V domains shown)
VH: EVQLQQSGPELVKPGASVKMSCKTSGYTFTEYTIHWVKQSHEKSLEWIGSINPNNGLFRYNQKFKGKATLTVDKSSSTAYMELRSLTSEDSAVYYCARDYGFGYSDYWGQGTTLTVSS
VL: DIQMIQSPSSMFASLGDRVSLSCRASQGIRGNLDWYQQKPGGTIKLLIYSTSNLNSGVPSRFSGSGSGSDYSLTISSLESEDFADYYCLQRNAFPWTFGGGTKLEIKR
notes: Chimeric: mouse variable domains, human IgG1 and human kappa constant regions
In the case of B1, in assay [1], the IC50 lay within 0.1 to 1 nM. Besides, the EC50 lay in the range of 0.1 to 0.5 nM in assay [2] and 0.01 to 0.1 nM in assay [3].

B2: R.20H1 (antibody, human IgG1, kappa, V domains shown)
VH: QEQLVESGGGLVKPGASLTLTCKASGFSFSSGYYMCWVRQAPGKGLEWIGCIYVRSDSTYYASWAKGRFTISKASSTTVTLQMTSLTAADTATYFCARGVTGDSYRFNFWGPGTLVTVSS
VL: DVVMTQTPASVEAAVGGTVTIKCQASQSISNELSWYQQKSGQPPKLLIYRASTLESGVPSRFKGSGSGTEFTLTISDLESADAATYYCQSTYYGTSYGNAFGGGTEVVVKR
notes: Chimeric: rabbit variable domains, human IgG1 and human kappa constant regions
For the molecule B2, the IC50 in assay [1] was 0.1 to 1 nM. In addition, the EC50 in assay [2] and in assay [3] was 0.1 to 0.5 nM each time.

B3: R.1B11 (antibody, human IgG1, kappa, V domains shown)
VH: QSLEESGGRLVTPGTPLTLTCTASGFSLNSYHMSWVRQAPGEGLEWIGIIYADTGNADYASWTKGRFTISKASTTVELRITSPTSEDTATYFCARGPTNTYPTYFALWGPGTLVTVSS
VL: AFELTQTPSSVEAAVGGTVTIKCQASQSITTYLAWYQQKPGQPPKLLIYGASNLESGVPSRFKGSRSGTEYTLTISDLESADAATYYCQSYYAISKSAFGGGTEVVVKR
notes: as for B2
In turn, B3 displayed an IC50 in assay [1] of 0.1 to 1 nM. The 50% effective concentration (EC50) was 0.1 to 0.5 nM in assay [2] and 0.01 to 0.1 nM in assay [3].

B4: R.9B11 (antibody, human IgG1, kappa, V domains shown)
VH: QEQLEESGGDLVKPEGSLTLTCTASGFSFSSYWMAWVRQAPGKGLEWIACIYIGSGSGTTYYASWAKGRFTISKTSSTTVTLQMTSLTAADTAIYFCARWAGSDGHFTLWGPGTLVTVSL
VL: ALVMTQTPASVEAAVGGTVTINCQASQSINNLLAWYQQKPGQRPKLLIYDASDLASGVSSRFKGSGSGTEYTLTISGVQSADAATYYCQGYFYGSSVDLVFGGGTEVVVKR
notes: as for B2
As for B4, in assay [1], the half-maximal inhibitory concentration (IC50) was in the range of 1 to 5 nM. Also, the EC50 in assay [2] lay in the range of 0.5 to 5 nM; in assay [3] it was 0.01 to 0.1 nM.

B5: R.19H7 (antibody, human IgG1, kappa, V domains shown)
VH: QEQLKESGGGLVTPGGTLTLTCTASGFTISSYHMCWVRQAPGKGLEWIGCIYPNNDFTWYATWAKGRFTISKTSSTTVDLRMTTPTTEETATYFCARASGNAYNLLDLWGQGTLVTVSS
VL: AIVMTQTPASVSVAVGGSVTINCQSSESVYRDNCLGWFQQKPGQPPKLLIYRASTLASGVPSRFKGSGSGTQFTLTISDVVSDDAATYYCAGYKSTITDGTAFGGGTEVVVKR
notes: as for B2
As for B5, the IC50 in assay [1] fell in the range of 1 to 5 nM. For the same molecule, the EC50 in assay [2] and in assay [3] was 0.1 to 0.5 nM in each case.

B6: hu.18B9.3i (antibody, V domains shown)
VH: EVQLVESGGGLVQPGGSLRLSCAASGFSFNSGYMSWVRQAPGKGLEWIASIYAGSSGKTYYADWAKGRFTISKTSSKTTVYLQMNSLRAEDTAVYYCARDSGGTYYTDYLYLWGQGTLVTVSS
VL: DIQMTQSPSSLSASVGDRVTITCRASEGISSYLSWYQQKPGKAPKLLIYKASTLTSGVPSRFSGSGSGTDFTLTISSLQPEDFATYYCQSTYGSSGSSGYGAAFGGGTKVEIK
notes: Humanised 18B9, parent of the alanine scan; also called hu.18B9.3i antibody
For B6, the EC50 in assay [4] lay in the range of 0.01 to 0.5 nM.

B7: hu.18B9.3i HC_T100b_A (antibody, V domains shown)
VH: B6 VH with T107A
VL: B6 VL
notes: Alanine scan variant of hu.18B9.3i; Kabat numbering
As for B7, in assay [4], the concentration giving a half-maximal response (EC50) fell in the range of 0.01 to 0.5 nM.

B8: hu.18B9.3i LC_S95b_A (antibody, V domains shown)
VH: B6 VH
VL: B6 VL with S97A
notes: as for B7
Regarding B8, the EC50 in assay [4] lay in the range of 0.01 to 0.5 nM.

B9: hu.18B9.3i HC_Y100a_A (antibody, V domains shown)
VH: B6 VH with Y106A
VL: B6 VL
notes: as for B7
Regarding B9, the EC50 in assay [4] lay within 0.01 to 0.5 nM.

B10: hu.18B9.3i LC_G95f_A (antibody, V domains shown)
VH: B6 VH
VL: B6 VL with G101A
notes: as for B7
In the case of B10, the EC50 in assay [4] lay within 0.01 to 0.5 nM.

B11: hu.18B9.3i LC_G95d_A (antibody, V domains shown)
VH: B6 VH
VL: B6 VL with G99A
notes: as for B7
On to B11, for which the EC50 in assay [4] lay in the range of 0.01 to 0.5 nM.

B12: hu.18B9.3i HC_L102A (antibody, name in Kabat numbering, V domains shown)
VH: B6 VH with L112A
VL: B6 VL
notes: as for B7
Consider B12, for which the EC50 in assay [4] lay in the range of 0.01 to 0.5 nM.

B13: hu.18B9.3i LC_S95c_A (antibody, V domains shown)
VH: B6 VH
VL: B6 VL with S98A
notes: as for B7
Take B13: the EC50 in assay [4] lay within 0.01 to 0.5 nM.

B14: hu.18B9.3i HC_Y100A (antibody, name in Kabat numbering, V domains shown)
VH: B6 VH with Y105A
VL: B6 VL
notes: as for B7
For the molecule B14, in assay [4], the EC50 lay within 0.01 to 0.5 nM.

B15: hu.18B9.3i LC_G93A (antibody, name in Kabat numbering, V domains shown)
VH: B6 VH
VL: B6 VL with G93A
notes: as for B7
In the case of B15, in assay [4], the EC50 was in the range of 0.01 to 0.5 nM.

B16: hu.18B9.3i HC_T99A (antibody, name in Kabat numbering, V domains shown)
VH: B6 VH with T104A
VL: B6 VL
notes: as for B7
Turning to B16, the EC50 in assay [4] was in the range of 0.01 to 0.5 nM.

B17: hu.18B9.3i LC_Y92A (antibody, name in Kabat numbering, V domains shown)
VH: B6 VH
VL: B6 VL with Y92A
notes: as for B7
For B17, the EC50 in assay [4] was 0.01 to 0.5 nM.

B18: hu.18B9.3i LC_S94A (antibody, name in Kabat numbering, V domains shown)
VH: B6 VH
VL: B6 VL with S94A
notes: as for B7
As for B18, the EC50 in assay [4] is 0.01 to 0.5 nM.

B19: hu.18B9.3i LC_Y95e_A (antibody, V domains shown)
VH: B6 VH
VL: B6 VL with Y100A
notes: as for B7
Take B19: the EC50 in assay [4] fell in the range of 0.01 to 0.5 nM.

B20: hu.18B9.3i HC_L100e_A (antibody, V domains shown)
VH: B6 VH with L110A
VL: B6 VL
notes: as for B7
Consider B20, for which the EC50 in assay [4] is over 5 nM.

B21: hu.18B9.3i LC_G95a_A (antibody, V domains shown)
VH: B6 VH
VL: B6 VL with G96A
notes: as for B7
Turning to B21, in assay [4], the EC50 lay within 0.01 to 0.5 nM.

B22: hu.18B9.3i LC_S90A (antibody, name in Kabat numbering, V domains shown)
VH: B6 VH
VL: B6 VL with S90A
notes: as for B7
Take B22: the 50% effective concentration (EC50) in assay [4] lay in the range of 0.01 to 0.5 nM.

B23: hu.18B9.3i LC_T91A (antibody, name in Kabat numbering, V domains shown)
VH: B6 VH
VL: B6 VL with T91A
notes: as for B7
Turning to B23, in assay [4], the EC50 lay within 0.01 to 0.5 nM.

B24: hu.18B9.3i HC_S96A (antibody, name in Kabat numbering, V domains shown)
VH: B6 VH with S101A
VL: B6 VL
notes: as for B7
For B24, in assay [4], the half-maximal effective concentration (EC50) was in the range of 0.5 to 5 nM.

B25: hu.18B9.3i LC_S95A (antibody, name in Kabat numbering, V domains shown)
VH: B6 VH
VL: B6 VL with S95A
notes: as for B7
B25: in assay [4], the EC50 is 0.01 to 0.5 nM.

B26: hu.18B9.3i LC_Q89A (antibody, name in Kabat numbering, V domains shown)
VH: B6 VH
VL: B6 VL with Q89A
notes: as for B7
Consider B26, for which the concentration for a half-maximal effect (EC50) in assay [4] was in the range of 0.5 to 5 nM.

B27: M.20B10E9 (antibody, human IgG1, kappa, V domains shown)
VH: EVQLQQSGAELVRPGASVKLSCTASGFNIEDTYMHWVKQRPEQGLEWIGRIDPANGKTKSDPKFQGKATITTDTSSNTAYLQLSSLTSEDTAVYYCAKGDGYYVGGLDYWGQGTTLTVSS
VL: DIQMNQSPSSLSASLGDTITITCHASQNIHVWLSWYQQKPGNIPKLLIYKASNLHTGVPSRFSGSGSGTGFTLTISSLQPEDIATYYCQQGQSYPYTFGGGTKLEIKR
notes: as for B1
For the molecule B27, in assay [1], the IC50 lay within 0.1 to 1 nM. Besides, the results for the EC50 in assay [2] and in assay [3] were 0.1 to 0.5 nM and 0.01 to 0.1 nM, respectively.

B28: M.30A5C6 (antibody, human IgG1, kappa, V domains shown)
VH: B27 VH with R13K, K57N, S60Y, I70V, T72A, Y95C, K98R, Y102H, D108N, T115S
VL: B27 VL with H30N, S93N
notes: as for B1
B28 came in with an IC50 in assay [1] of 0.1 to 1 nM. In addition, the EC50 in assay [2] fell in the range of 0.1 to 0.5 nM; in assay [3], 0.01 to 0.1 nM.

B29: R.1H3 (antibody, human IgG1, kappa, V domains shown)
VH: QSLEESGGDLVKPGASLTLTCTASGFSFSSGYYMCWVRQAPGKGLEWIACIYMRSGDTYLASWAKGQFTISKTSSTTVTLQMTSLTAADTATYFCGRGGTSYALNLWGQGTLVTVSS
VL: DVVMTQTPASVSEPVGGTVTINCQASQSISNECSWYQQKPGQPPKLLIYRASTLESGVPSRFSGSGSGTEFTLTISDLESADAATYYCQSTYYGTTGNTFGGGTEVVVKR
notes: as for B2
B29 came in with an IC50 in assay [1] of 0.1 to 1 nM. Besides, the results for the concentration giving a half-maximal response (EC50) in assay [2] and in assay [3] were 0.1 to 0.5 nM and over 0.5 nM, respectively.

B30: M.95D4A11 (antibody, human IgG1, kappa, V domains shown)
VH: QVQLQQPGAELVRPGASVKLSCKASGYTFTSYWMNWVKQRPEQGLEWIGSIDPYDSETHYNQKFKDKAILTVDKSSSTAYMQLSSLTSEDSAVYYCARGRGYAMDYWGQGTSVTVSS
VL: DIQMTQSPASLSASVGETVTITCRASGNIHNYLAWYQQKQGKSPQLLVYNAKTLADGVPSRFSGSGSGTQYSLKINSLQPEDFGSYYCQHFWSTPPTFGGGTKLEIKR
notes: as for B1
B30 had a 50% inhibitory concentration (IC50) in assay [1] of 0.1 to 1 nM. The EC50 was 0.1 to 0.5 nM in assay [2] and 0.01 to 0.1 nM in assay [3].
